Measured values published in patent publication US12320801B2, “Methods to spatially profile protease activity in tissue and sections” (Massachusetts Institute of Technology, priority 2017, dated 2025).
Like-named read-outs stand apart in the source and are kept apart here. Values belong to the molecule of their own block, whether it stands above or below them. Non-standard residues stand in square brackets, D forms with d. Primed or numbered codes have the meaning given here. No end group written: not given here. *: point of attachment. 5FAM = O=C1OC2(c3ccc(O)cc3Oc3cc(O)ccc32)c2ccc(C(=O)*)cc21; CPQ2 = quencher on the Lys side chain; PEG2′ = polyethylene glycol linker

What was measured:
MMP9 = molecular target: T1, MMP9 (Homo sapiens, UniProt P14780); experiment: In vitro recombinant protease assay: cleavage of nanoparticle-presented FRET substrate by MMP9; type: biochemical; conditions: 6 μM substrate
T1 construct: purchased Enzo Life Sciences
T1 sequence (P14780 94-707): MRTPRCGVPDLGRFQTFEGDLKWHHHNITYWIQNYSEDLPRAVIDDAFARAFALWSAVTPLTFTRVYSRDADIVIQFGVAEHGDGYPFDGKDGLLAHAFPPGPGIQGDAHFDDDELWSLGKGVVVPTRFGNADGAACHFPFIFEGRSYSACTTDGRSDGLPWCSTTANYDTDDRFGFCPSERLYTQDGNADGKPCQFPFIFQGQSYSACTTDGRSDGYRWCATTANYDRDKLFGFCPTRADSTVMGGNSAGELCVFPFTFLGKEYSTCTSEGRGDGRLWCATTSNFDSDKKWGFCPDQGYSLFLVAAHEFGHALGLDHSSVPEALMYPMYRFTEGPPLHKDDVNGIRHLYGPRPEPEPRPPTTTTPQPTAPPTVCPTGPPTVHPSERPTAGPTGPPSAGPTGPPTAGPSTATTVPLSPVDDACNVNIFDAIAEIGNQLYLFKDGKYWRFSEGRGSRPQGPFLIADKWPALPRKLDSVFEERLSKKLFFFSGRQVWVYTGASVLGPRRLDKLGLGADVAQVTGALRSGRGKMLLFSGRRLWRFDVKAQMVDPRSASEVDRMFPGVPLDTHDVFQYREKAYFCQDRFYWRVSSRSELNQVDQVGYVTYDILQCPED
Description: In some embodiments, surface presentation of peptide substrates allows tuning of specificity between on- and off-target proteolytic cleavage rates of the substrate (e.g., MMP9 substrate). The cleavage kinetics of an MMP9 peptide substrate (PLGVRGK; SEQ ID NO: 15), flanked by a fluorescence resonance energy transfer (FRET) pair, at varying distances from the nanoparticle core (FIG. 3A) were tested. For this substrate, the rate of cleavage by MMP9 increased with increasing presentation distance (tether length) for all the substrate concentrations tested (0.5, 1.0, 2.0, 4.0 and 6.0 μM); as an example, cleavage velocity (V) increased from 0.24 to 0.96 nM s^−1 at 6 μM (FIG. 3B). Unexpectedly, this phenomenon was not generalizable across enzymes. For example, cleavage rates by the serine protease, thrombin, decreased with increasing presentation distance when the same substrate was tested (e.g., V at 6 μM of substrate decreased from 0.29 to 0.01 nM s^−1; FIG. 3C). Nor was it generalizable across substrates. […]
Nanoparticles coupled with intramolecularly quenched peptide substrates were reacted with recombinant proteases to identify cleavage velocities. […] (SpectroMax Gemini EM microplate reader). Michaelis-Menten constants were determined by assessing initial cleavage velocities at different substrate concentrations (Prism 5.0, GraphPad). […]

thrombin = molecular target: T2, thrombin (Homo sapiens, UniProt P00734); experiment: In vitro recombinant protease assay: cleavage of nanoparticle-presented FRET substrate by thrombin; type: biochemical; conditions: for cleavage velocity (V) by thrombin: 6 μM substrate
T2 construct: purchased Haematologic Technologies
Description: In some embodiments, surface presentation of peptide substrates allows tuning of specificity between on- and off-target proteolytic cleavage rates of the substrate (e.g., MMP9 substrate). The cleavage kinetics of an MMP9 peptide substrate (PLGVRGK; SEQ ID NO: 15), flanked by a fluorescence resonance energy transfer (FRET) pair, at varying distances from the nanoparticle core (FIG. 3A) were tested. For this substrate, the rate of cleavage by MMP9 increased with increasing presentation distance (tether length) for all the substrate concentrations tested (0.5, 1.0, 2.0, 4.0 and 6.0 μM); as an example, cleavage velocity (V) increased from 0.24 to 0.96 nM s^−1 at 6 μM (FIG. 3B). Unexpectedly, this phenomenon was not generalizable across enzymes. For example, cleavage rates by the serine protease, thrombin, decreased with increasing presentation distance when the same substrate was tested (e.g., V at 6 μM of substrate decreased from 0.29 to 0.01 nM s^−1; FIG. 3C). Nor was it generalizable across substrates. […] The presentation of the MMP9 substrate on the ABNs described in this example exploited the increased on-target and decreased off-target protease cleavage that occurs for long tether lengths.
Nanoparticles coupled with intramolecularly quenched peptide substrates were reacted with recombinant proteases to identify cleavage velocities. NPs were mixed with 1% (w/v) BSA (Sigma) and incubated with recombinant proteases (MMP-9, Enzo Life Sciences; thrombin, Haematologic Technologies) in a final volume of 50 μl in enzyme-specific buffers (MMP9 buffer: 50 mM Tris, 150 mM NaCl, 5 mM CaCl2), 1 μM ZnCl2, pH 7.5; thrombin: PBS) in a 384-well plate for time-lapse fluorimetry to measure dequenching at 37° C. (SpectroMax Gemini EM microplate reader). Michaelis-Menten constants were determined by assessing initial cleavage velocities at different substrate concentrations (Prism 5.0, GraphPad). The final MMP-9 concentration was 100 nM and the final thrombin concentration was 7 nM.

mouse MMP9 = mouse MMP9 (Mus musculus, UniProt P41245); experiment: Cleavage of MMP9 substrate by mouse MMP9; type: biochemical
mouse MMP9, sequence (P41245 108-730): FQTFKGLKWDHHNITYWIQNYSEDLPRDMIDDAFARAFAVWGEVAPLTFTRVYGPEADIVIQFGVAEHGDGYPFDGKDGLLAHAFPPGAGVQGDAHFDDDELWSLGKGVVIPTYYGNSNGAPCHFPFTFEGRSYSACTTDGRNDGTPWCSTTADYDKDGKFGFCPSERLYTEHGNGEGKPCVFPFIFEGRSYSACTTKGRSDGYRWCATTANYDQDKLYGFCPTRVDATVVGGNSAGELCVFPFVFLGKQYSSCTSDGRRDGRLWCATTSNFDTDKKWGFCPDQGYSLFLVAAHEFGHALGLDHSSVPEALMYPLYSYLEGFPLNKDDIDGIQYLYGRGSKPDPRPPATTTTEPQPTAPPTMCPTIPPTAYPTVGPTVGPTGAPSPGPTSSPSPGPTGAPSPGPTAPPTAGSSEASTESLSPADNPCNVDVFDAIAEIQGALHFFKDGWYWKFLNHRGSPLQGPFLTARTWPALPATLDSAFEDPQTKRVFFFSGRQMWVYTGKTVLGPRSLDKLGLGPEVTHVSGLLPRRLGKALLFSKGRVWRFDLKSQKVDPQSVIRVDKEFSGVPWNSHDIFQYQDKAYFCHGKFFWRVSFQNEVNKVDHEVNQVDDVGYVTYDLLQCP
Excerpt: FIGS. 14A-14B show iRGD ABNz characterization.
Receptor expression on tumors varies by tumor type and patient. In this example, another ABN was produced using the tumor-penetrating ligand, iRGD (CRGDKGPDC; SEQ ID NO: 2). This peptide engages the same active-internalization pathway as LyP-1, but binds to αvβ3 or αvβ5 integrin heterodimers as its primary receptor, which are ectopically overexpressed in a large subset of cancers (FIG. 12A). The tumor-targeting peptides iRGD and LyP-1 were bound to ABNs and administered to an immunocompetent mouse model of colorectal liver metastasis (CLM), induced via an intrasplenic injection of p32-negative, integrin-positive and NRP-1-positive MC-26 cells (FIG. 12B-12C and FIGS. 13A-13C). MC-26 cells are derived from a mouse colorectal cancer line and secrete MMP9, which can be detected in the tumor nodules as well as in the tumor-adjacent liver, but not in non-tumor-bearing liver lobes (FIG. 12D). The stoichiometries for substrate conjugation on iRGD ABNs were similar to those used on the LyP-1 ABNs (FIG. 14A). […] This was consistent in the model of orthotopic ovarian cancer (FIG. 15D).

matrix-metalloprotease = experiment: Cleavage of MMP9 substrate by OVCAR-8 conditioned media with and without MMP inhibitor; type: biochemical, human
OVCAR-8 tumor nodules = experiment: Blood biomarker HE4 ELISA in orthotopic OVCAR-8 ovarian cancer model; type: in vivo, mouse
Description: The ability of ABNs to: (1) detect low-burden ovarian cancer and (2) outperform a clinical blood biomarker were tested. Detection by ABNs was compared to the blood biomarker HE4, as OVCAR-8 cells produce relatively high levels of this protein, on a par with four other human ovarian cancer cell lines (FIGS. 10B-10C). […] This threshold of sensitivity is critical, as clinically approved imaging modalities can typically only resolve individual tumor nodules greater than 5 mm in diameter. Additionally, it has been estimated that to decrease serous ovarian cancer mortality by 50% with an annual screen, a test would have to be sensitive to tumors of <5 mm. […] It was confirmed that the tumor nodule retrieval methodology described in this example accounted for greater than 80% of the tumor burden by measuring luminescence pre- and post-resection (FIGS. 11D-11G). The tumor burden remaining can be attributed to uncollected macroscopic and microscopic lesions.
To generate an orthotopic model of human ovarian cancer, three- to four-week-old female NCr nude mice were injected intraperitoneally with 2×10^6 OVCAR-8 cells expressing firefly luciferase. Tumor burden was measured via luminescence using an in vivo imaging system (IVIS, PerkinElmer). Each mouse was sacrificed and the tumors were retrieved from all organs in the peritoneal space. Tumors were collected on a glass slide and scanned on a LI-COR Odyssey with 169 μm resolution. Widths and lengths were measured with ImageJ and tumor volume was calculated as described above for subcutaneous tumors. The reported tumor volumes for each group are the average of ten mice. Before tumor induction, urine measurements were performed by injecting mice with 0.5 μM LyP1 ABNs. Approximately 200 μl of blood was collected and spiked with EDTA to a final concentration of 5 mM, and the blood cells were pelleted. Plasma was stored at −20° C. prior to HE4 quantification. HE4 levels were measured using the HE4 quantikine ELISA kit.

cleavage velocity (V) by MMP9 (MMP9; longest presentation distance (tether length)): 0.96 nM/s | cleavage velocity (V) by MMP9 (MMP9; shortest presentation distance (tether length)): 0.24 nM/s | cleavage velocity (V) by thrombin (thrombin; longest presentation distance): 0.01 nM/s | cleavage velocity (V) by thrombin (thrombin; shortest presentation distance): 0.29 nM/s | cleavage by mouse MMP9 (mouse MMP9): readily able to cleave
Molecule: 5-FAM-GGPLGVRGKK(CPQ2)-PEG2-C (5FAM-GGPLGVRGKK(CPQ2)[PEG2′]C) [MMP9 peptide substrate, MMP9 peptide substrate (PLGVRGK) flanked by a FRET pair, presented on nanoparticle surface at varying PEG tether lengths]

Molecule: 5-FAM-GGfPRSGGGK(CPQ2)-PEG2-C [thrombin-selective substrate]
optimal presentation length for thrombin cleavage (thrombin; varying linker lengths on nanoparticle surface): optimally presented at an intermediate length

Molecule: CNC(=O)[C@@H](NC(=O)[C@H](CC(C)C)[C@H](O)C(=O)NO)C(C)(C)C [marimistat]
inhibition of cleavage of MMP9 substrate by OVCAR-8 conditioned media (matrix-metalloprotease): can be inhibited | inhibition of cleavage of MMP9 substrate by OVCAR-8 conditioned media (matrix-metalloprotease; listed as Marimistat): can inhibit a significant portion of the cleavage

B1: HE4: human epididymis protein, clinical blood biomarker used as comparator diagnostic, measured by ELISA (protein, UniProt Q14508 31-124, looked up)
WAP four-disulfide core …: EKTGVCPELQADQNCTQECVSDSECADNLKCCSAGCATFCSLPNDKEGSCPQVNINFPQLGLCRDQCQVDSQCPGQMKCCRNGCGKVSCVTPNF
limit of detection (tumor volume) (OVCAR-8 tumor nodules; 3 weeks): 88 mm^3 | ROC-AUC (OVCAR-8 tumor nodules; three weeks): 0.93 | ROC-AUC (OVCAR-8 tumor nodules; two weeks): 0.51
